First the molecules themselves.
T1: Cas12i3 S536R K583R N711R C724R (Unidentified, S536R,K583R,N711R,C724R)
T1 chain: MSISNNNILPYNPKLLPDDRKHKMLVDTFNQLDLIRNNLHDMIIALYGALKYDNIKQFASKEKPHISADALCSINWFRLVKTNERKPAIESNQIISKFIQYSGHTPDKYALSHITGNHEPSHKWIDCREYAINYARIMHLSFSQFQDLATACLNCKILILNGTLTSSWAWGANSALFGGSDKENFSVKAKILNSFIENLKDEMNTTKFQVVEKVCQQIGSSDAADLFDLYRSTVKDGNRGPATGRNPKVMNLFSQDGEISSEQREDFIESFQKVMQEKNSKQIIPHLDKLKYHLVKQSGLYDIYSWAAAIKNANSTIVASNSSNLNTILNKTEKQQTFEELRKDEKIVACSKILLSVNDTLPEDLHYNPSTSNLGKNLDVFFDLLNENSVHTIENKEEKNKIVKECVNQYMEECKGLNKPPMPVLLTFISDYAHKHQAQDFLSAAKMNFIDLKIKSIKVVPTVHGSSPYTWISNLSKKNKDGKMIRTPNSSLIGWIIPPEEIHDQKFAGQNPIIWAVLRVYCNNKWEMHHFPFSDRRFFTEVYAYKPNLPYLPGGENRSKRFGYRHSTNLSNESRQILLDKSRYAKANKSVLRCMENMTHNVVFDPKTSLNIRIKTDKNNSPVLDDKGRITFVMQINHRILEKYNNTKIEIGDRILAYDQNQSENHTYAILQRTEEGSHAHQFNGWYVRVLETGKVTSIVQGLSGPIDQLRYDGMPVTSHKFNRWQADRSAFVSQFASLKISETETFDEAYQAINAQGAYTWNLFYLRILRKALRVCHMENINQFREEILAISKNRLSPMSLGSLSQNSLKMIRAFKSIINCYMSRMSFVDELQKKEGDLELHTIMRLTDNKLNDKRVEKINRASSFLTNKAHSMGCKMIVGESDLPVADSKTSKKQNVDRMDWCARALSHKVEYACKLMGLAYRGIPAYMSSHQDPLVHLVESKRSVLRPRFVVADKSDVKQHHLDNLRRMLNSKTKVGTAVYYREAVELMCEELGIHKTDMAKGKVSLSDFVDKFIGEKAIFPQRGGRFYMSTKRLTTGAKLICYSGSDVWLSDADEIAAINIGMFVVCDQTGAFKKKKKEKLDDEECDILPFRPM

T2: Cas12i3 S536R (Unidentified, S536R)
T2 chain: T1 chain with R583K, R711N, R724C

B1: AAVS1_T3 crRNA ; AAVS1_T3 target (ssRNA ; dsDNA)
RNA: AUAGUGUGUCCUUAGUUGACAUGUGAGAAUGGUGCGUCCUAG
DNA 1: GTGAGAATGGTGCGTCCTAG
DNA 2: CTAGGACGCACCATTCTCAC
B2: EMX1_T5 crRNA ; EMX1_T5 target (ssRNA ; dsDNA)
RNA: AUAGUGUGUCCUUAGUUGACAUUAUUAUUCCCAUAGGGAAGG
DNA 1: TATTATTCCCATAGGGAAGG
DNA 2: CCTTCCCTATGGGAATAATA
B3: VEGFA_T2 crRNA ; VEGFA_T2 target (ssRNA ; dsDNA)
RNA: AUAGUGUGUCCUUAGUUGACAUAAUCCUCCACCAGUCAUGGU
DNA 1: AATCCTCCACCAGTCATGGT
DNA 2: ACCATGACTGGTGGAGGATT

Drawing on patent publication US20240352434, “COMPOSITIONS COMPRISING A VARIANT CAS12I3 POLYPEPTIDE AND USES THEREOF” (Arbor Biotechnologies, Inc., published 2024), this text covers binding signal for three molecules.

Residue numbers refer to the chain shown, from its start.

The target of one data set is T1, Cas12i3 S536R K583R N711R C724R. The experiment in a line: cell_activity; fold change in % indels, HEK293T; PAM not stated in example. As to the method:
(§1) Approximately 16 hours prior to transfection, 100 μl of 25,000 HEK293T cells in DMEM/10% FBS+Pen/Strep were plated into each well of a 96-well plate. On the day of transfection, the cells were 70-90% confluent. For each well to be transfected, a mixture of 0.5 μl of Lipofectamine 2000 and 9.5 μl of Opti-MEM was prepared and then incubated at room temperature for 5-20 minutes (Solution 1). […] In the case of negative controls, the crRNA was not included in Solution 2. The solution 1 and solution 2 mixtures were mixed by pipetting up and down and then incubated at room temperature for 25 minutes. Following incubation, 20 μL of the Solution 1 and Solution 2 mixture were added dropwise to each well of a 96 well plate containing the cells. 72 hours post transfection, cells are trypsinized by adding 10 μL of TrypLE to the center of each well and incubated for approximately 5 minutes. 100 μL of D10 media was then added to each well and mixed to resuspend cells. The cells were then spun down at 500 g for 10 minutes, and the supernatant was discarded. QuickExtract buffer was added to ⅕ the amount of the original cell suspension volume. Cells were incubated at 65° C. for 15 minutes, 68° C. for 15 minutes, and 98° C. for 10 minutes.
(§2) Samples for Next Generation Sequencing were prepared by two rounds of PCR. The first round (PCR1) was used to amplify specific genomic regions depending on the target. PCR1 products were purified by column purification. Round 2 PCR (PCR2) was done to add Illumina adapters and indexes. Reactions were then pooled and purified by column purification. Sequencing runs were done with a 150 cycle NextSeq v2.5 mid or high output kit.
For the molecule B1, the binding signal is 0.8 fold of wild-type.
Take B2: the binding signal is 0.72 fold of wild-type.
Consider B3, for which the binding signal is 1.1 fold of wild-type.

For another data set, the target named is T2, Cas12i3 S536R. Described as above. On the procedure: as §1, §2
As for B1, the binding signal is 2.16 fold of wild-type.
Take B2: the binding signal was 1.27 fold of wild-type.
In the case of B3, the binding signal is 1.8 fold of wild-type.
